Experimental data reported in article doi:10.1101/2024.06.20.599911 (bioRxiv, 2024).

Target: T1, GFP-AtCNIH5 (genomic AtCNIH5pro: GFP-AtCNIH5 in cnih5) (Arabidopsis thaliana, UniProt Q9SZ74 1-135)
T1 sequence (looked up): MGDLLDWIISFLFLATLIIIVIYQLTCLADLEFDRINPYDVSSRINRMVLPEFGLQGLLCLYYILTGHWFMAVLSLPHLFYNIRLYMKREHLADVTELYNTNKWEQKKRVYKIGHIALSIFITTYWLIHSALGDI
Assay: co-IP

B1: endogenous AtPHF1 (natural protein, UniProt Q8GYE0 1-398, looked up)
chain: MEIEEASRESGHVVCGSWIRRPKKVNWVLIAKASKRRGSSVSSPALLNIFSFDPITASLSSSPLATHTLKDSDGDPVAVSVHPGGDYFVCSTSKGGCKLFELVGGATGITILAKELLPLQNAGLQKCMAFSFDGSKLAVGGVDGCLRIMEWPNLSVILDEPKAHKSIRDMDFSLDSEFLATTSTDGSARIWKAEDGFPLSTLERSGDENIELCRFSKDGTKPFLFCAAQRGDTPMVNVYDISTWKKLGFKKLSRKTASTMAVSLDGKYIALGGKDGDVSVAEVKTMEIYHYSKRLHLGQSIASLEFCPSERVMLTTSSEWGEMVTKLTVPKEWKEWQIYALLFCLFMASVIAAYVFFENSDSFWKLPMGKDQKRPKISLFGGSSSTPSEDHSRWNLDL
For B1, the “fold co-immunoprecipitated against the free GFP control” value was about 40 times.
